According to IntAct's records for PubMed 25910212:

B1: EF-hand domain-containing protein 1 (Homo sapiens), Q5JVL4 (parent)
chain: MVSNPVHGLPFLPGTSFKDSTKTAFHRSQTLSYRNGYAIVRRPTVGIGGDRLQFNQLSQAELDELASKAPVLTYGQPKQAPPADFIPAHVAFDKKVLKFDAYFQEDVPMSTEEQYRIRQVNIYYYLEDDSMSVIEPVVENSGILQGKLIKRQRLAKNDRGDHYHWKDLNRGINITIYGKTFRVVDCDQFTQVFLESQGIELNPPEKMALDPYTELRKQPLRKYVTPSDFDQLKQFLTFDKQVLRFYAIWDDTDSMYGECRTYIIHYYLMDDTVEIREVHERNDGRDPFPLLMNRQRVPKVLVENAKNFPQCVLEISDQEVLEWYTAKDFIVGKSLTILGRTFFIYDCDPFTRRYYKEKFGITDLPRIDVSKREPPPVKQELPPYNGFGLVEDSAQNCFALIPKAPKKDVIKMLVNDNKVLRYLAVLESPIPEDKDRRFVFSYFLATDMISIFEPPVRNSGIIGGKYLGRTKVVKPYSTVDNPVYYGPSDFFIGAVIEVFGHRFIILDTDEYVLKYMESNAAQYSPEALASIQNHVRKREAPAPEAESKQTEKDPGVQELEALIDTIQKQLKDHSCKDNIREAFQIYDKEASGYVDRDMFFKICESLNVPVDDSLVKELIRMCSHGEGKINYYNFVRAFSN
partner: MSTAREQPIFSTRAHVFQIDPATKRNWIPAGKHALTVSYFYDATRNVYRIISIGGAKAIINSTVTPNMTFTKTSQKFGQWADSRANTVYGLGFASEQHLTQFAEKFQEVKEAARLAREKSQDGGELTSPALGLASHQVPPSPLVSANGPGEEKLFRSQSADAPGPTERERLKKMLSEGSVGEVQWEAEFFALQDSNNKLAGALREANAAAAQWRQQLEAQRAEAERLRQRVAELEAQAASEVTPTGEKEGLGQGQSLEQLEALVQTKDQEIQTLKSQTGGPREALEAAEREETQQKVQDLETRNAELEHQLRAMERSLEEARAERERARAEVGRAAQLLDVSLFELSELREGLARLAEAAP
B2: Acetylcholine receptor subunit gamma (Homo sapiens), P07510-2 (parent)
chain: MHGGQGPLLLLLLLAVCLGAQGRNQEERLLADLMQNYDPNLRPAERDSDVVNVSLKLTLTNLISLNEREEALTTNVWIEMQWCDYRLRWDPRDYEGLWVLRVPSTMVWRPDIVLENKSQTYSTNEIDLQLSQEDGQTIEWIFIDPEAFTENGEWAIQHRPAKMLLDPAAPAQEAGHQKVVFYLLIQRKPLFYVINIIAPCVLISSVAILIHFLPAKAGGQKCTVAINVLLAQTVFLFLVAKKVPETSQAVPLISKYLTFLLVVTILIVVNAVVVLNVSLRSPHTHSMARGVRKVFLRLLPQLLRMHVRPLAPAAVQDTQSRLQNGSSGWSITTGEEVALCLPRSELLFQQWQRQGLVAAALEKLEKGPELGLSQFCGSLKQAAPAIQACVEACNLIACARHQQSHFDNGNEEWFLVGRVLDRVCFLAMLSLFICGTAGIFLMAHYNRVPALPFPGDPRPYLPSPD
partner: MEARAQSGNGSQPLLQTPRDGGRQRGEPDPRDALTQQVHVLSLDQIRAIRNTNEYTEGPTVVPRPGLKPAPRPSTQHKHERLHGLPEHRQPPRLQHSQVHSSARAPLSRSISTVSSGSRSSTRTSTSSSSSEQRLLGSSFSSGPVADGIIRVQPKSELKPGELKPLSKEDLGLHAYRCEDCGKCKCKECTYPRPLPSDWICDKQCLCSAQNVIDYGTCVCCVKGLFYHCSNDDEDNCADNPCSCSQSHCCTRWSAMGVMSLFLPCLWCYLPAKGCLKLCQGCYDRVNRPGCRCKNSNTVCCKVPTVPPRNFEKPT
B3: U4/U6 small nuclear ribonucleoprotein Prp31 (Homo sapiens), Q8WWY3 (parent)
chain: MSLADELLADLEEAAEEEEGGSYGEEEEEPAIEDVQEETQLDLSGDSVKTIAKLWDSKMFAEIMMKIEEYISKQAKASEVMGPVEAAPEYRVIVDANNLTVEIENELNIIHKFIRDKYSKRFPELESLVPNALDYIRTVKELGNSLDKCKNNENLQQILTNATIMVVSVTASTTQGQQLSEEELERLEEACDMALELNASKHRIYEYVESRMSFIAPNLSIIIGASTAAKIMGVAGGLTNLSKMPACNIMLLGAQRKTLSGFSSTSVLPHTGYIYHSDIVQSLPPDLRRKAARLVAAKCTLAARVDSFHESTEGKVGYELKDEIERKFDKWQEPPPVKQVKPLPAPLDGQRKKRGGRRYRKMKERLGLTEIRKQANRMSFGEIEEDAYQEDLGFSLGHLGKSGSGRVRQTQVNEATKARISKTLQRTLQKQSVVYGGKSTIRDRSSGTASSVAFTPLQGLEIVNPQAAEKKVAEANQKYFSSMAEFLKVKGEKSGLMST
partner: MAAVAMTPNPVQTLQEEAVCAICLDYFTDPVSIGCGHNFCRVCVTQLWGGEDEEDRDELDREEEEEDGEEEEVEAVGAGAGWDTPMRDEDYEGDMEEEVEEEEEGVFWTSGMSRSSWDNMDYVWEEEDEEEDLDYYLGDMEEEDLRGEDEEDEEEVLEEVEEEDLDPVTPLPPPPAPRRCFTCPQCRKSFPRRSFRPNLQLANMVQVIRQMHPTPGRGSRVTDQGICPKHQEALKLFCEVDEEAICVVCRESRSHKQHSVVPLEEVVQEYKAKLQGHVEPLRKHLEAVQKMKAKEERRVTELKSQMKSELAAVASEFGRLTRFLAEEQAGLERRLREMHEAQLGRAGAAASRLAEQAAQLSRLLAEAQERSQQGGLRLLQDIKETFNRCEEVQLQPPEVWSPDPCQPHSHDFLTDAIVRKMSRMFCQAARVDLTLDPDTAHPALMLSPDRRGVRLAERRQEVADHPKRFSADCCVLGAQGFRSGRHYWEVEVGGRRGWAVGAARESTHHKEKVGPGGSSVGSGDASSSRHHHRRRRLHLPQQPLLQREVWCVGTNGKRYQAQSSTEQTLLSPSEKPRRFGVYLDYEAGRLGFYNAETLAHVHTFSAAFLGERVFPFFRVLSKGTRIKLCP
B4: Glutathione S-transferase A2 (Homo sapiens), P09210 (parent)
chain: MAEKPKLHYSNIRGRMESIRWLLAAAGVEFEEKFIKSAEDLDKLRNDGYLMFQQVPMVEIDGMKLVQTRAILNYIASKYNLYGKDIKEKALIDMYIEGIADLGEMILLLPFSQPEEQDAKLALIQEKTKNRYFPAFEKVLKSHGQDYLVGNKLSRADIHLVELLYYVEELDSSLISSFPLLKALKTRISNLPTVKKFLQPGSPRKPPMDEKSLEESRKIFRF
partner: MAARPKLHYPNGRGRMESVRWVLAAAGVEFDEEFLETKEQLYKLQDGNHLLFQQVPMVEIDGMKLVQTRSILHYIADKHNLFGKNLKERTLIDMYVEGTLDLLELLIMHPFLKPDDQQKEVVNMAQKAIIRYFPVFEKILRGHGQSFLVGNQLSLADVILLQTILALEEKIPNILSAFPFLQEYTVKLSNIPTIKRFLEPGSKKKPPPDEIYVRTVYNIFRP
B5: ATP synthase mitochondrial F1 complex assembly factor 2 (Homo sapiens), Q8N5M1 (parent)
chain: MWRSCLRLRDGGRRLLNRPAGGPSASMSPGPTIPSPARAYAPPTERKRFYQNVSITQGEGGFEINLDHRKLKTPQAKLFTVPSEALAIAVATEWDSQQDTIKYYTMHLTTLCNTSLDNPTQRNKDQLIRAAVKFLDTDTICYRVEEPETLVELQRNEWDPIIEWAEKRYGVEISSSTSIMGPSIPAKTREVLVSHLASYNTWALQGIEFVAAQLKSMVLTLGLIDLRLTVEQAVLLSRLEEEYQIQKWGNIEWAHDYELQELRARTAAGTLFIHLCSESTTVKHKLLKE
partner: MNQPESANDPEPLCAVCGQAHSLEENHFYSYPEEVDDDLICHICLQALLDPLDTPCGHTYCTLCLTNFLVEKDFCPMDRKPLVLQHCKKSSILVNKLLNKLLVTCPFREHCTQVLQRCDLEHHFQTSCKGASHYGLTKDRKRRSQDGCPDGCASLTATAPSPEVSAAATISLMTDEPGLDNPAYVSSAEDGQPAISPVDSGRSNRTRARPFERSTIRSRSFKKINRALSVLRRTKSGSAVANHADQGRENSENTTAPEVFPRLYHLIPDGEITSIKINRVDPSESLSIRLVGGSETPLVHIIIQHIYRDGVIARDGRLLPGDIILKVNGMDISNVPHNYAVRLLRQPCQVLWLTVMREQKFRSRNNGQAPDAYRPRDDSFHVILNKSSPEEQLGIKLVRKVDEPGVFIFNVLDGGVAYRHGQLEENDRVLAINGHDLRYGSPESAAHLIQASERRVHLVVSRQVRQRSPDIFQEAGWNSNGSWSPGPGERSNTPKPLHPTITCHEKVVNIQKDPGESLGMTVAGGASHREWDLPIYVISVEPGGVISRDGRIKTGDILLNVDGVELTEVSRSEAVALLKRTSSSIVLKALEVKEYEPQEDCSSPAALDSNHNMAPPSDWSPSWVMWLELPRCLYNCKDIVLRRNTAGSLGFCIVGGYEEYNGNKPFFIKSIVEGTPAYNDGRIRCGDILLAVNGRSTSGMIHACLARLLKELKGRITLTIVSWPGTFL
B6: Phakinin (Homo sapiens), Q13515 (parent)
chain: MSERRVVVDLPTSASSSMPLQRRRASFRGPRSSSSLESPPASRTNAMSGLVRAPGVYVGTAPSGCIGGLGARVTRRALGISSVFLQGLRSSGLATVPAPGLERDHGAVEDLGGCLVEYMAKVHALEQVSQELETQLRMHLESKATRSGNWGALRASWASSCQQVGEAVLENARLMLQTETIQAGADDFKERYENEQPFRKAAEEEINSLYKVIDEANLTKMDLESQIESLKEELGSLSRNYEEDVKLLHKQLAGCELEQMDAPIGTGLDDILETIRIQWERDVEKNRVEAGALLQAKQQAEVAHMSQTQEEKLAAALRVELHNTSCQVQSLQAETESLRALKRGLENTLHDAKHWHDMELQNLGAVVGRLEAELREIRAEAEQQQQERAHLLARKCQLQKDVASYHALLDREESG
partner: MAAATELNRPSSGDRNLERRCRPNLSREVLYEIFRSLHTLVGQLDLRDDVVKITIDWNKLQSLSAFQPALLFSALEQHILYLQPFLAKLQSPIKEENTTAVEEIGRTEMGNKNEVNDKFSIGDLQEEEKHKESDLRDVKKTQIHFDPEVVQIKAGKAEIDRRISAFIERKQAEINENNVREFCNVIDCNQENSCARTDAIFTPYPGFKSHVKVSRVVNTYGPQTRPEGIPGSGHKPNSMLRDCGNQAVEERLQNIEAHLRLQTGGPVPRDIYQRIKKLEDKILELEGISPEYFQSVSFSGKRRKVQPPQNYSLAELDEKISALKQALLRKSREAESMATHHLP
B7: Cullin-4B (Homo sapiens), Q13620 (parent)
chain: MMSQSSGSGDGNDDEATTSKDGGFSSPSPSAAAAAQEVRSATDGNTSTTPPTSAKKRKLNSSSSSSSNSSNEREDFDSTSSSSSTPPLQPRDSASPSTSSFCLGVSVAASSHVPIQKKLRFEDTLEFVGFDAKMAEESSSSSSSSSPTAATSQQQQLKNKSILISSVASVHHANGLAKSSTTVSSFANSKPGSAKKLVIKNFKDKPKLPENYTDETWQKLKEAVEAIQNSTSIKYNLEELYQAVENLCSYKISANLYKQLRQICEDHIKAQIHQFREDSLDSVLFLKKIDRCWQNHCRQMIMIRSIFLFLDRTYVLQNSMLPSIWDMGLELFRAHIISDQKVQNKTIDGILLLIERERNGEAIDRSLLRSLLSMLSDLQIYQDSFEQRFLEETNRLYAAEGQKLMQEREVPEYLHHVNKRLEEEADRLITYLDQTTQKSLIATVEKQLLGEHLTAILQKGLNNLLDENRIQDLSLLYQLFSRVRGGVQVLLQQWIEYIKAFGSTIVINPEKDKTMVQELLDFKDKVDHIIDICFLKNEKFINAMKEAFETFINKRPNKPAELIAKYVDSKLRAGNKEATDEELEKMLDKIMIIFRFIYGKDVFEAFYKKDLAKRLLVGKSASVDAEKSMLSKLKHECGAAFTSKLEGMFKDMELSKDIMIQFKQYMQNQNVPGNIELTVNILTMGYWPTYVPMEVHLPPEMVKLQEIFKTFYLGKHSGRKLQWQSTLGHCVLKAEFKEGKKELQVSLFQTLVLLMFNEGEEFSLEEIKQATGIEDGELRRTLQSLACGKARVLAKNPKGKDIEDGDKFICNDDFKHKLFRIKINQIQMKETVEEQASTTERVFQDRQYQIDAAIVRIMKMRKTLSHNLLVSEVYNQLKFPVKPADLKKRIESLIDRDYMERDKENPNQYNYIA
partner: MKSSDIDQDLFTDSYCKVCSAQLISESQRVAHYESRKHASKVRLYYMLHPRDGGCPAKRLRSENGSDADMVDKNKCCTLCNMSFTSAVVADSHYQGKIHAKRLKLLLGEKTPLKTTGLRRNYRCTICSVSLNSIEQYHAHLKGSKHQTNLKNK

Variants of: B1
Conditions: with home3_human HOMER3, Q9NSC5

Variant | effect of a mutation on the interaction
R159W | with no effect

Variants of: B2
Conditions: with spy2_human SPRY2, O43597

Variant | effect of a mutation on the interaction
R187C | disrupting interaction strength
R86C | disrupting interaction strength
V107G | disrupting interaction strength

Variants of: B3
Conditions: with tri41_human TRIM41, Q8WV44

Variant | effect of a mutation on the interaction
L107V | with no effect

Variants of: B4
Conditions: with gsta4_human GSTA4, O15217

Variant | effect of a mutation on the interaction
P110S | with no effect

Variants of: B5
Conditions: with lnx1_human LNX1, Q8TBB1

Variant | effect of a mutation on the interaction
W94R | disrupting interaction strength

Variants of: B6
Conditions: with MBIP

Variant | effect of a mutation on the interaction
A407D | with no effect
R339H | with no effect

Variants of: B7
Conditions: with ZMAT4, Q9H898-2

Variant | effect of a mutation on the interaction
V745A | with no effect
